Among the targets are LD3_v1 (L133A); LD3_v2 (I136A); LD3_v5 (K144A); LD3_v3 (D138A); LD3_v4 (F140A).
Common to all, as to experiment: SPR; Biacore 8K; original LD3 and mutants immobilised on CM5 chip by amine coupling (500-1000 RU); Bcl-2 injected as analyte in serial 2-fold dilutions (from 2000 or 500 nM); HBS-EP+ pH 7.4, 150 mM NaCl; 1:1 Langmuir fit; three independent experiments

LD3_v2 (I136A), sequence (P02649 other isoform, or with tags, fused parts or gaps I136A): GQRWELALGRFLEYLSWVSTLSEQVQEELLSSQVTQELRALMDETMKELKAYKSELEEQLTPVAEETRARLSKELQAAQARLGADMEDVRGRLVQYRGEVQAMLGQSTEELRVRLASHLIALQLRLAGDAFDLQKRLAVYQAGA
LD3_v1 (L133A), sequence (P02649 other isoform, or with tags, fused parts or gaps L133A): as the sequence (P02649 other isoform, or with tags, fused parts or gaps I136A) above, with L124A, A127I counted along it
LD3_v3 (D138A), sequence (P02649 other isoform, or with tags, fused parts or gaps D138A): as the sequence (P02649 other isoform, or with tags, fused parts or gaps I136A) above, with A127I, D129A counted along it
LD3_v5 (K144A), sequence (P02649 other isoform, or with tags, fused parts or gaps K144A): as the sequence (P02649 other isoform, or with tags, fused parts or gaps I136A) above, with A127I, K135A counted along it
LD3_v4 (F140A), sequence (P02649 other isoform, or with tags, fused parts or gaps F140A): as the sequence (P02649 other isoform, or with tags, fused parts or gaps I136A) above, with A127I, F131A counted along it

In general, Kd refers to a measure of binding affinity in units of concentration. In general, koff refers to a measure of how fast the partners let go of each other. High values mean fast dissociation, low ones slow dissociation. By kon is commonly meant the rate constant with which the complex forms. Low values mean slow association, high ones fast association. As to “B-cell lymphoma 2 (Bcl-2) protein (from UniProt P10415 1-239) (natural protein)”, the Kd came to 65.8 nM with LD3_v1 (L133A); 0.74 nM in the experiment with LD3_v2 (I136A); 0.46 nM with LD3_v5 (K144A); 358 nM with LD3_v3 (D138A); 27.3 nM with LD3_v4 (F140A). The koff with LD3_v1 (L133A) was found to be 0.00263 s⁻¹; with LD3_v2 (I136A) it was 8.9e-05 s⁻¹; in the experiment with LD3_v5 (K144A), 6.6e-05 s⁻¹; in the experiment with LD3_v3 (D138A), 0.0184 s⁻¹; with LD3_v4 (F140A), 0.00197 s⁻¹. The kon in the experiment with LD3_v1 (L133A) was 40800 M⁻¹ s⁻¹; with LD3_v2 (I136A) it was 360000 M⁻¹ s⁻¹; with LD3_v5 (K144A), 455000 M⁻¹ s⁻¹; in the experiment with LD3_v3 (D138A) it was 154000 M⁻¹ s⁻¹; with LD3_v4 (F140A), 240000 M⁻¹ s⁻¹.

These data come from PMC10278067.
